For 70 substances, Peptide exchange results are on record in US10253076B2, “Peptides and combination of peptides for use in immunotherapy against ovarian cancer and other cancers” (immatics biotechnologies GmbH, priority 2015, dated 2019).

This test has as its target HLA-A*02:01 (Homo sapiens, UniProt P04439, D140Y/D185E/D98H/E176V/E277Q/G131W/G231S/I119V/I121R/I166T/I218V/L300P/L318F/N151K/N90K/P208A/P217A/Q86G/Q94H/R138H/R169H/T345S). Description: MHC binding assay (UV-ligand exchange, beta2m ELISA, peptide exchange yield). The settings on record: binding of HLA-class I restricted peptides to HLA-A*02:01, ranged by peptide exchange yield (UV-ligand exchange, β2m ELISA). The essentials: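 Readout is a β2m ELISA: stabilized complexes captured on streptavidin, detected with HRP-conjugated anti-β2m and TMB at 450 nm, reporting peptide exchange yield. Complexes come from UV-light cleavage of a conditional ligand in HLA-A*02:01 and replacement by the candidate peptide, samples diluted 100-fold.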
A general note: An ELISA detects its analyte on a solid surface through an enzyme-linked reagent.

For the substance “468 (YLRSVGDGETV; listed as Homo sapiens) [compound 468]”, the Peptide exchange entry is recorded as “″+++″ (≥50% = +++)”.
On to “469 (YLASDEITTV; listed as Homo sapiens) [compound 469]”, for which the Peptide exchange result was “″+++″ (≥50% = +++)”.
For the substance “471 (YLYNNMIAKI; listed as Homo sapiens) [compound 471]”, the Peptide exchange result is on record as “″+++″ (≥50% = +++)”.
On to “472 (KLLEVSDDPQV; listed as Homo sapiens) [compound 472]”, for which the Peptide exchange entry is on record as “″+++″ (≥50% = +++)”.
To “473 (AMATESILHFA; listed as Homo sapiens) [compound 473]” belongs “″+++″ (≥50% = +++)”; to “474 (YLDPALELGPRNV; listed as Homo sapiens) [compound 474]”, “″+++″ (≥50% = +++)”.
Consider “475 (LLLNEEALAQI; listed as Homo sapiens) [compound 475]”, for which the Peptide exchange result is “″+++″ (≥50% = +++)”.
As for “476 (ALMERTGYSMV; listed as Homo sapiens) [compound 476]”, the Peptide exchange result is reported as “″+++″ (≥50% = +++)”.
To “477 (ALLPASGQIAL; listed as Homo sapiens) [compound 477]” belongs “″+++″ (≥50% = +++)”.
Consider “478 (YLLHEKLNL; listed as Homo sapiens) [compound 478]”, for which the Peptide exchange entry is reported as “″+++″ (≥50% = +++)”.
The result for “479 (SLFGNSGILENV; listed as Homo sapiens) [compound 479]” reads “″+++″ (≥50% = +++)”; that for “480 (ALLEDSCHYL; listed as Homo sapiens) [compound 480]”, “″+++″ (≥50% = +++)”.
As for “481 (GLIEDYEALL; listed as Homo sapiens) [compound 481]”, the Peptide exchange result was “″+++″ (≥50% = +++)”.
To “484 (SLIEKVTQL; listed as Homo sapiens) [compound 484]” belongs “″+++″ (≥50% = +++)”; to “485 (NVPDSFNEV; listed as Homo sapiens) [compound 485]”, “″+++″ (≥50% = +++)”; to “486 (AVMESIQGV; listed as Homo sapiens) [compound 486]”, “″+++″ (≥50% = +++)”.
“487 (LLINSVFHV; listed as Homo sapiens) [compound 487]”: the Peptide exchange entry was “″+++″ (≥50% = +++)”.
For “488 (FLAEDPKVTL; listed as Homo sapiens) [compound 488]”, the Peptide exchange entry was “″+++″ (≥50% = +++)”.
The result for “490 (FLLQHVQEL; listed as Homo sapiens) [compound 490]” reads “″+++″ (≥50% = +++)”; that for “491 (GLNDRSDAV; listed as Homo sapiens) [compound 491]”, “″++″ (≥20% = ++)”; that for “492 (SLFDGFADGLGV; listed as Homo sapiens) [compound 492]”, “″+++″ (≥50% = +++)”.
Turning to “493 (GLLGEKTQDLIGV; listed as Homo sapiens) [compound 493]”, the Peptide exchange result is “″+++″ (≥50% = +++)”.
Turning to “494 (ALQPEPIKV; listed as Homo sapiens) [compound 494]”, the Peptide exchange result was “″++″ (≥20% = ++)”.
On to “495 (FIFSEKPVFV; listed as Homo sapiens) [compound 495]”, for which the Peptide exchange result is on record as “″+++″ (≥50% = +++)”.
As for “496 (FLVEKQPPQV; listed as Homo sapiens) [compound 496]”, the Peptide exchange entry was “″+++″ (≥50% = +++)”.
To “497 (GLLEKLTAI; listed as Homo sapiens) [compound 497]” belongs “″+++″ (≥50% = +++)”.
For the substance “498 (KLWTGGLDNTV; listed as Homo sapiens) [compound 498]”, the Peptide exchange result was “″+++″ (≥50% = +++)”.
With “500 (SLMEDQVLQL; listed as Homo sapiens) [compound 500]”, the Peptide exchange result was “″+++″ (≥50% = +++)”.
The result for “501 (LLDPNVKSIFV; listed as Homo sapiens) [compound 501]” reads “″+++″ (≥50% = +++)”.
In the case of “502 (RLLAQVPGL; listed as Homo sapiens) [compound 502]”, the Peptide exchange entry is reported as “″+++″ (≥50% = +++)”.
For “503 (SLNHFTHSV; listed as Homo sapiens) [compound 503]”, the Peptide exchange result was “″+++″ (≥50% = +++)”.
To “504 (GLSDGNPSL; listed as Homo sapiens) [compound 504]” belongs “″++″ (≥20% = ++)”; to “505 (SLAPGDVVRQV; listed as Homo sapiens) [compound 505]”, “″++″ (≥20% = ++)”.
For “506 (KLLGKVETA; listed as Homo sapiens) [compound 506]”, the Peptide exchange result is listed as “″+++″ (≥50% = +++)”.
As for “507 (KLIDDQDISISL; listed as Homo sapiens) [compound 507]”, the Peptide exchange result is recorded as “″+++″ (≥50% = +++)”.
To “508 (ILAQEQLVVGV; listed as Homo sapiens) [compound 508]” belongs “″+++″ (≥50% = +++)”; to “509 (FLFDTKPLIV; listed as Homo sapiens) [compound 509]”, “″+++″ (≥50% = +++)”; to “510 (KLYSVVSQL; listed as Homo sapiens) [compound 510]”, “″++″ (≥20% = ++)”.
The result for “512 (SLSEIVPCL; listed as Homo sapiens) [compound 512]” reads “″+++″ (≥50% = +++)”; that for “513 (SLWPSPEQL; listed as Homo sapiens) [compound 513]”, “″++″ (≥20% = ++)”; that for “514 (ILVDWLVQV; listed as Homo sapiens) [compound 514]”, “″+++″ (≥50% = +++)”.
To “515 (LLQELVLFL; listed as Homo sapiens) [compound 515]” belongs “″+++″ (≥50% = +++)”.
With “516 (AVGPASILKEV; listed as Homo sapiens) [compound 516]”, the Peptide exchange entry was “″++″ (≥20% = ++)”.
To “517 (LLMPIPEGLTL; listed as Homo sapiens) [compound 517]” belongs “″+++″ (≥50% = +++)”; to “518 (KLNAEVACV; listed as Homo sapiens) [compound 518]”, “″+++″ (≥50% = +++)”; to “519 (GLLHLTLLL; listed as Homo sapiens) [compound 519]”, “″+++″ (≥50% = +++)”.
For the substance “520 (LAVHPSGVAL; listed as Homo sapiens) [compound 520]”, the Peptide exchange entry is on record as “″+″ (≥10% = +)”.
Take “521 (MLLTKLPTI; listed as Homo sapiens) [compound 521]”: the Peptide exchange result is on record as “″+++″ (≥50% = +++)”.
Take “522 (TLWYRSPEV; listed as Homo sapiens) [compound 522]”: the Peptide exchange entry is recorded as “″++″ (≥20% = ++)”.
“523 (YQIPRTFTL; listed as Homo sapiens) [compound 523]”: the Peptide exchange entry is reported as “″++″ (≥20% = ++)”.
As for “524 (ALIENLTHQI; listed as Homo sapiens) [compound 524]”, the Peptide exchange result is on record as “″++″ (≥20% = ++)”.
“525 (VLLEAGEGLVTI; listed as Homo sapiens) [compound 525]”: the Peptide exchange result is “″+++″ (≥50% = +++)”.
To “526 (RLAEVGQYEQV; listed as Homo sapiens) [compound 526]” belongs “″++″ (≥20% = ++)”; to “527 (FLLEPGNLEV; listed as Homo sapiens) [compound 527]”, “″++++″ (≥75% = ++++)”.
Turning to “528 (SVAEGRALMSV; listed as Homo sapiens) [compound 528]”, the Peptide exchange result was “″+++″ (≥50% = +++)”.
Turning to “529 (LLADELITV; listed as Homo sapiens) [compound 529]”, the Peptide exchange entry is “″+++″ (≥50% = +++)”.
With “530 (VMYADIGGMDI; listed as Homo sapiens) [compound 530]”, the Peptide exchange result was “″+++″ (≥50% = +++)”.
For “531 (YTLPIASSIRL; listed as Homo sapiens) [compound 531]”, the Peptide exchange result was “″+++″ (≥50% = +++)”.
Turning to “537 (TLAPGEVLRSV; listed as Homo sapiens) [compound 537]”, the Peptide exchange entry was “″+++″ (≥50% = +++)”.
To “538 (LLLAHIIAL; listed as Homo sapiens) [compound 538]” belongs “″++″ (≥20% = ++)”; to “539 (ALFDAQAQV; listed as Homo sapiens) [compound 539]”, “″+++″ (≥50% = +++)”.
To “541 (SMLEPVPEL; listed as Homo sapiens) [compound 541]” belongs “″+++″ (≥50% = +++)”.
The result for “542 (RVWDISTVSSV; listed as Homo sapiens) [compound 542]” reads “″+++″ (≥50% = +++)”; that for “543 (GLLPTPITQQASL; listed as Homo sapiens) [compound 543]”, “″+++″ (≥50% = +++)”; that for “544 (LLWDVPAPSL; listed as Homo sapiens) [compound 544]”, “″+++″ (≥50% = +++)”.
Consider “545 (LLADLLHNV; listed as Homo sapiens) [compound 545]”, for which the Peptide exchange entry is “″+++″ (≥50% = +++)”.
As for “546 (VMIAGKVAVV; listed as Homo sapiens) [compound 546]”, the Peptide exchange entry is on record as “″+++″ (≥50% = +++)”.
For the substance “547 (TLDITPHTV; listed as Homo sapiens) [compound 547]”, the Peptide exchange result is listed as “″+++″ (≥50% = +++)”.
To “548 (ALWENPESGEL; listed as Homo sapiens) [compound 548]” belongs “″++″ (≥20% = ++)”; to “549 (AMLENASDIKL; listed as Homo sapiens) [compound 549]”, “″+++″ (≥50% = +++)”.
